Laboratory results published in PMC9482650, “Quantitative fragmentomics allow affinity mapping of interactomes” (Nature Communications, 2022).

T1: DFNB31_1, Q9P202
T1 sequence (Q9P202 135-233, limits assumed, looked up): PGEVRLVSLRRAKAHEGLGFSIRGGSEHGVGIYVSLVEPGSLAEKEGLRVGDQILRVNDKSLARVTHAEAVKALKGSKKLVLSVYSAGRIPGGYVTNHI

T2: DLG3_1, Q92796
T2 sequence (Q92796 125-227, limits assumed, looked up): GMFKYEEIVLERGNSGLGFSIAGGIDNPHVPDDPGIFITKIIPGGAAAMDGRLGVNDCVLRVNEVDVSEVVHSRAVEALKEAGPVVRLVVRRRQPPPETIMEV

T3: DLG3_2, Q92796
T3 sequence (Q92796 221-321, limits assumed, looked up): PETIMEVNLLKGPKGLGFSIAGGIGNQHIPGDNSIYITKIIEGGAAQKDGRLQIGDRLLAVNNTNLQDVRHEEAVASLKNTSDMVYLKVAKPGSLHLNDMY

T4: LIN7A, O14910
T4 sequence (O14910 103-200, limits assumed, looked up): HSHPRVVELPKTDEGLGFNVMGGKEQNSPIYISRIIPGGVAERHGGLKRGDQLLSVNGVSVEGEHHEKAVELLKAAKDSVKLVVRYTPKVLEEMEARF

T5: MPDZ_5, O75970
T5 sequence (O75970 695-796, limits assumed, looked up): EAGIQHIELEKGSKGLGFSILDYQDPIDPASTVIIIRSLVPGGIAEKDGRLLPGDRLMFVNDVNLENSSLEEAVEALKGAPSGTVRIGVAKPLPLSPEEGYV

T6: NHERF3_3, Q5T2W1
T6 sequence (Q5T2W1 238-333, limits assumed, looked up): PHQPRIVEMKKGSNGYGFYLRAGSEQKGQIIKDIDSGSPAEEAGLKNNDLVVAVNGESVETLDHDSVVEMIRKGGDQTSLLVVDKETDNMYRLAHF

T7: PTPN13_1, Q12923
T7 sequence (Q12923 1088-1188, limits assumed, looked up): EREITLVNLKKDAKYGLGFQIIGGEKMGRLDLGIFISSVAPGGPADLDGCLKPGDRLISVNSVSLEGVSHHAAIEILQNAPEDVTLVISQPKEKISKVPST

T8: RADIL, Q96JH8
T8 sequence (Q96JH8 971-1071, limits assumed, looked up): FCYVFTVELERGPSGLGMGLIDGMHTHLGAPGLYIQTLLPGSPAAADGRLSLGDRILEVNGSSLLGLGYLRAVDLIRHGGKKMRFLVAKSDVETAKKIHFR

T9: RHPN1, Q8TCX5
T9 sequence (Q8TCX5 508-602, limits assumed, looked up): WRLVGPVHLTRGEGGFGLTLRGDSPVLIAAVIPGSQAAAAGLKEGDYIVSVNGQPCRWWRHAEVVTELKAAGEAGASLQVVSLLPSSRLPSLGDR

T10: SNTG1, Q9NSN8
T10 sequence (Q9NSN8 52-150, limits assumed, looked up): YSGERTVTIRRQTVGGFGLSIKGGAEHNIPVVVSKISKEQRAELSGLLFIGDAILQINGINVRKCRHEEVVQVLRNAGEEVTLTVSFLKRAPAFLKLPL

T11: SNTG2, Q9NY99
T11 sequence (Q9NY99 68-166, limits assumed, looked up): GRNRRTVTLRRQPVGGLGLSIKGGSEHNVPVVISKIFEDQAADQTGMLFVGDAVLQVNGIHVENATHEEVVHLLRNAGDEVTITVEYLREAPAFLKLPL

B1: SSTR5, P35346 (peptide)
chain: ANGLMQTSKL
B2: DENND5A, Q6IQ26 (peptide)
chain: ETSLVKGIDI

Target: AHNAK1, Q09666
Sequence (Q09666 4-100): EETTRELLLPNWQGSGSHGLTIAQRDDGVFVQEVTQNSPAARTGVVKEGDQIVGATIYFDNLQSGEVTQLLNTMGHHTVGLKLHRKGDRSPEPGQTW
Test: holdup assay
Set-up: key: below the threshold = too weak to quantify, mostly under pKd 3.1 to 4
Conditions: plain residues with an end cap or a label only (N-terminal biotin on a linker: ado-ado)

| Binder | pKd |
| --- | --- |
| B1 | below the threshold |
| B2 | below the threshold |

Target: T1, DFNB31_1, Q9P202
Test: holdup assay
Set-up: key: below the threshold = too weak to quantify, mostly under pKd 3.1 to 4
Conditions: plain residues with an end cap or a label only (N-terminal biotin on a linker: ado-ado)

| Binder | pKd |
| --- | --- |
| B1 | 4.34 |
| B2 | below the threshold |

Target: DLG1_3, Q12959
Sequence (Q12959 457-571): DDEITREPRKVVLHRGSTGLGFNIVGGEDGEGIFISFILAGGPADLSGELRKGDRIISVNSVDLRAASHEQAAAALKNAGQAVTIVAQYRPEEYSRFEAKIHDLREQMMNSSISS
Test: holdup assay
Set-up: key: below the threshold = too weak to quantify, mostly under pKd 3.1 to 4
Conditions: plain residues with an end cap or a label only (N-terminal biotin on a linker: ado-ado)

| Binder | pKd |
| --- | --- |
| B1 | below the threshold |
| B2 | 3.76 |

Target: T2, DLG3_1, Q92796
Test: holdup assay
Set-up: key: below the threshold = too weak to quantify, mostly under pKd 3.1 to 4
Conditions: plain residues with an end cap or a label only (N-terminal biotin on a linker: ado-ado)

| Binder | pKd |
| --- | --- |
| B1 | below the threshold |
| B2 | below the threshold |

Target: T3, DLG3_2, Q92796
Test: holdup assay
Set-up: key: below the threshold = too weak to quantify, mostly under pKd 3.1 to 4
Conditions: plain residues with an end cap or a label only (N-terminal biotin on a linker: ado-ado)

| Binder | pKd |
| --- | --- |
| B1 | 3.75 |
| B2 | 3.57 |

Target: FRMPD2_2, Q68DX3
Sequence (Q68DX3 944-1038): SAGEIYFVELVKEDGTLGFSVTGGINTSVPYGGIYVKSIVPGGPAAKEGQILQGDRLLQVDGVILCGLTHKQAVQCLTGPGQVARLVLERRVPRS
Test: holdup assay
Set-up: key: below the threshold = too weak to quantify, mostly under pKd 3.1 to 4
Conditions: plain residues with an end cap or a label only (N-terminal biotin on a linker: ado-ado)

| Binder | pKd |
| --- | --- |
| B1 | below the threshold |
| B2 | below the threshold |

Target: FRMPD2_3, Q68DX3
Sequence (Q68DX3 1073-1166): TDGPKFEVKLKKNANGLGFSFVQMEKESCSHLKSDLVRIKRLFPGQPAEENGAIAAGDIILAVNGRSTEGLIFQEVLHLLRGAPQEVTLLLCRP
Test: holdup assay
Set-up: key: below the threshold = too weak to quantify, mostly under pKd 3.1 to 4
Conditions: plain residues with an end cap or a label only (N-terminal biotin on a linker: ado-ado)

| Binder | pKd |
| --- | --- |
| B1 | below the threshold |
| B2 | 3.57 |

Target: GORASP2, Q9H8Y8
Test: holdup assay
Set-up: key: below the threshold = too weak to quantify, mostly under pKd 3.1 to 4
Conditions: plain residues with an end cap or a label only (N-terminal biotin on a linker: ado-ado)

| Binder | pKd |
| --- | --- |
| B1 | below the threshold |
| B2 | 3.79 |

Target: Inadl_10, Q8NI35
Sequence (Q8NI35 1673-1763): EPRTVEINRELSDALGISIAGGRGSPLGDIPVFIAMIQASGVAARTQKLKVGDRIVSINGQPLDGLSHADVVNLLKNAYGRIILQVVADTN
Test: holdup assay
Set-up: key: below the threshold = too weak to quantify, mostly under pKd 3.1 to 4
Conditions: plain residues with an end cap or a label only (N-terminal biotin on a linker: ado-ado)

| Binder | pKd |
| --- | --- |
| B1 | below the threshold |
| B2 | below the threshold |

Target: Inadl_3, Q8NI35
Sequence (Q8NI35 359-469): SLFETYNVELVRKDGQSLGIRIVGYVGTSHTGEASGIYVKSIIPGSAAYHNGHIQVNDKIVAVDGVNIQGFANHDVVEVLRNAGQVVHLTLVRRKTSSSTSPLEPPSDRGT
Test: holdup assay
Set-up: key: below the threshold = too weak to quantify, mostly under pKd 3.1 to 4
Conditions: plain residues with an end cap or a label only (N-terminal biotin on a linker: ado-ado)

| Binder | pKd |
| --- | --- |
| B1 | below the threshold |
| B2 | 3.53 |

Target: Inadl_9, Q8NI35
Sequence (Q8NI35 1530-1615): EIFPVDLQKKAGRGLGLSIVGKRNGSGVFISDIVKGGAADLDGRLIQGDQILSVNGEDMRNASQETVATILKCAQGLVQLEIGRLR
Test: holdup assay
Set-up: key: below the threshold = too weak to quantify, mostly under pKd 3.1 to 4
Conditions: plain residues with an end cap or a label only (N-terminal biotin on a linker: ado-ado)

| Binder | pKd |
| --- | --- |
| B1 | below the threshold |
| B2 | 3.63 |

Target: LIMK2, P53671
Sequence (P53671 143-248): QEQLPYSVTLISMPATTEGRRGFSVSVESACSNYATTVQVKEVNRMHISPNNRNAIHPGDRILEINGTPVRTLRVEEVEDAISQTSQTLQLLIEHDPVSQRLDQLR
Test: holdup assay
Set-up: key: below the threshold = too weak to quantify, mostly under pKd 3.1 to 4
Conditions: plain residues with an end cap or a label only (N-terminal biotin on a linker: ado-ado)

| Binder | pKd |
| --- | --- |
| B1 | below the threshold |
| B2 | below the threshold |

Target: T4, LIN7A, O14910
Test: holdup assay
Set-up: key: below the threshold = too weak to quantify, mostly under pKd 3.1 to 4
Conditions: plain residues with an end cap or a label only (N-terminal biotin on a linker: ado-ado)

| Binder | pKd |
| --- | --- |
| B1 | below the threshold |
| B2 | below the threshold |

Target: LNX1_2, Q8TBB1
Sequence (Q8TBB1 371-470): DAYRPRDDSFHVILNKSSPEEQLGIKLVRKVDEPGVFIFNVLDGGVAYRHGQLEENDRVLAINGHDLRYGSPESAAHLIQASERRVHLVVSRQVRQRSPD
Test: holdup assay
Set-up: key: below the threshold = too weak to quantify, mostly under pKd 3.1 to 4
Conditions: plain residues with an end cap or a label only (N-terminal biotin on a linker: ado-ado)

| Binder | pKd |
| --- | --- |
| B1 | below the threshold |
| B2 | below the threshold |

Target: MAGI1_2, Q96QZ7
Sequence (Q96QZ7 456-580): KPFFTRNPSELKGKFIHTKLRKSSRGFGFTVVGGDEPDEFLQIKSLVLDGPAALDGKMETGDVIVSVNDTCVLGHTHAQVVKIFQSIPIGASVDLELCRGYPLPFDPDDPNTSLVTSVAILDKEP
Test: holdup assay
Set-up: key: below the threshold = too weak to quantify, mostly under pKd 3.1 to 4
Conditions: plain residues with an end cap or a label only (N-terminal biotin on a linker: ado-ado)

| Binder | pKd |
| --- | --- |
| B1 | below the threshold |
| B2 | below the threshold |

Target: MAGI2_4, Q86UL8
Sequence (Q86UL8 772-865): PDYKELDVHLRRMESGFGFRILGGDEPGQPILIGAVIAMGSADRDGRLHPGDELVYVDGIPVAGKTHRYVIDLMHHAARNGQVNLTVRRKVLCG
Test: holdup assay
Set-up: key: below the threshold = too weak to quantify, mostly under pKd 3.1 to 4
Conditions: plain residues with an end cap or a label only (N-terminal biotin on a linker: ado-ado)

| Binder | pKd |
| --- | --- |
| B1 | below the threshold |
| B2 | 3.66 |

Target: T5, MPDZ_5, O75970
Test: holdup assay
Set-up: key: below the threshold = too weak to quantify, mostly under pKd 3.1 to 4
Conditions: plain residues with an end cap or a label only (N-terminal biotin on a linker: ado-ado)

| Binder | pKd |
| --- | --- |
| B1 | below the threshold |
| B2 | below the threshold |

Target: T6, NHERF3_3, Q5T2W1
Test: holdup assay
Set-up: key: below the threshold = too weak to quantify, mostly under pKd 3.1 to 4
Conditions: plain residues with an end cap or a label only (N-terminal biotin on a linker: ado-ado)

| Binder | pKd |
| --- | --- |
| B1 | 3.81 |
| B2 | below the threshold |

Target: NHERF4_1, Q86UT5-2
Sequence (Q86UT5 other isoform, or with tags, fused parts or gaps): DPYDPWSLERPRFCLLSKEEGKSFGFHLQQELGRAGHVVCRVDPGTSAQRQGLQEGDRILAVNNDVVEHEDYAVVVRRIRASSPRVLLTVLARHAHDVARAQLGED
Test: holdup assay
Set-up: key: below the threshold = too weak to quantify, mostly under pKd 3.1 to 4
Conditions: plain residues with an end cap or a label only (N-terminal biotin on a linker: ado-ado)

| Binder | pKd |
| --- | --- |
| B1 | 4.3 |
| B2 | 3.59 |

Target: T7, PTPN13_1, Q12923
Test: holdup assay
Set-up: key: below the threshold = too weak to quantify, mostly under pKd 3.1 to 4
Conditions: plain residues with an end cap or a label only (N-terminal biotin on a linker: ado-ado)

| Binder | pKd |
| --- | --- |
| B1 | below the threshold |
| B2 | below the threshold |

Target: PTPN3, P26045
Sequence (P26045 505-587): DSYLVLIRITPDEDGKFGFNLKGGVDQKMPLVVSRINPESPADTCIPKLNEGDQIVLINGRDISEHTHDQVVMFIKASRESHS
Test: holdup assay
Set-up: key: below the threshold = too weak to quantify, mostly under pKd 3.1 to 4
Conditions: plain residues with an end cap or a label only (N-terminal biotin on a linker: ado-ado)

| Binder | pKd |
| --- | --- |
| B1 | 4.1 |
| B2 | below the threshold |

Target: T8, RADIL, Q96JH8
Test: holdup assay
Set-up: key: below the threshold = too weak to quantify, mostly under pKd 3.1 to 4
Conditions: plain residues with an end cap or a label only (N-terminal biotin on a linker: ado-ado)

| Binder | pKd |
| --- | --- |
| B1 | below the threshold |
| B2 | below the threshold |

Target: T9, RHPN1, Q8TCX5
Test: holdup assay
Set-up: key: below the threshold = too weak to quantify, mostly under pKd 3.1 to 4
Conditions: plain residues with an end cap or a label only (N-terminal biotin on a linker: ado-ado)

| Binder | pKd |
| --- | --- |
| B1 | 4.36 |
| B2 | 3.56 |

Target: SCRIB_2, Q14160
Sequence (Q14160 857-960): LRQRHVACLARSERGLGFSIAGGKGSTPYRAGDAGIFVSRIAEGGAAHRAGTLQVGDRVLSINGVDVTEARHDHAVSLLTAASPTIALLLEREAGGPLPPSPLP
Test: holdup assay
Set-up: key: below the threshold = too weak to quantify, mostly under pKd 3.1 to 4
Conditions: plain residues with an end cap or a label only (N-terminal biotin on a linker: ado-ado)

| Binder | pKd |
| --- | --- |
| B1 | below the threshold |
| B2 | below the threshold |

Target: T10, SNTG1, Q9NSN8
Test: holdup assay
Set-up: key: below the threshold = too weak to quantify, mostly under pKd 3.1 to 4
Conditions: plain residues with an end cap or a label only (N-terminal biotin on a linker: ado-ado)

| Binder | pKd |
| --- | --- |
| B1 | below the threshold |
| B2 | below the threshold |

Target: T11, SNTG2, Q9NY99
Test: holdup assay
Set-up: key: below the threshold = too weak to quantify, mostly under pKd 3.1 to 4
Conditions: plain residues with an end cap or a label only (N-terminal biotin on a linker: ado-ado)

| Binder | pKd |
| --- | --- |
| B1 | 3.62 |
| B2 | below the threshold |

Target: TJP1_3, Q07157
Sequence (Q07157 416-512): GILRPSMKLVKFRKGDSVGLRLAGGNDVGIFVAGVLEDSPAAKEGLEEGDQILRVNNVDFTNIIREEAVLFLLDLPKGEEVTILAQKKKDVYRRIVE
Test: holdup assay
Set-up: key: below the threshold = too weak to quantify, mostly under pKd 3.1 to 4
Conditions: plain residues with an end cap or a label only (N-terminal biotin on a linker: ado-ado)

| Binder | pKd |
| --- | --- |
| B1 | below the threshold |
| B2 | below the threshold |
